In the test the target is SARS-CoV-2 Nsp15 catalytically inactive mutant H234A (SARS-CoV-2). The test can be described thus: cryo-EM structure.

Turning to “SARS-CoV-2 Nsp15 catalytically inactive mutant H234A (enzyme)”, the stoichiometry N was determined as 6.

Usually stoichiometry N stands for the number of molecules, sites or subunits per partner or assembly.
